Assay results reported in the supplement of paper PMC11246515.
± gives the standard deviation of the averaged measurements.

Assay: total protein half-life in vivo (active degradation + dilution); higher = more stable protein
[1] = E. coli NCM3722 delta-clpP delta-lon delta-hslV, growth: N-lim chemostat, doubling time 6 h
[2] = E. coli NCM3722 delta-clpP, growth: N-lim chemostat, doubling time 6 h
[3] = E. coli NCM3722 delta-hslV, growth: N-lim chemostat, doubling time 6 h
[4] = E. coli NCM3722 delta-lon, growth: N-lim chemostat, doubling time 6 h
[5] = E. coli NCM3722 delta-smpB, growth: N-lim chemostat, doubling time 6 h
[6] = wild type E. coli NCM3722, growth: C-lim chemostat, doubling time 3 h
[7] = wild type E. coli NCM3722, growth: C-lim chemostat, doubling time 6 h
[8] = wild type E. coli NCM3722, growth: C-lim chemostat, doubling time 12 h
[9] = wild type E. coli NCM3722, growth: N-lim chemostat, doubling time 6 h
[10] = wild type E. coli NCM3722, growth: N-lim chemostat, doubling time 12 h
[11] = wild type E. coli NCM3722, growth: P-lim chemostat, doubling time 6 h
[12] = wild type E. coli NCM3722, growth: P-lim chemostat, doubling time 12 h

For “MTVTTFSELELDESLLEALQDKGFTRPTAIQAAAIPPALDGRDVLGSAPTGTGKTAAYLLPALQHLLDFPRKKSGPPRILILTPTRELAMQVSDHARELAKHTHLDIATITGGVAYMNHAEVFSENQDIVVATTGRLLQYIKEENFDCRAVETLILDEADRMLDMGFAQDIEHIAGETRWRKQTLLFSATLEGDAIQDFAERLLEDPVEVSANPSTRERKKIHQWYYRADDLEHKTALLVHLLKQPEATRSIVFVRKRERVHELANWLREAGINNCYLEGEMVQGKRNEAIKRLTEGRVNVLVATDVAARGIDIPDVSHVFNFDMPRSGDTYLHRIGRTARAGRKGTAISLVEAHDHLLLGKVGRYIEEPIKARVIDELRPKTRAPSEKQTGKPSKKVLAKRAEKKKAKEKEKPRVKKRHRDTKNIGKRRKPSGTGVPPQTTEE”, the “total protein half-life in vivo” value [1] was 5.75 ± 0.085 h, the “total protein half-life in vivo” value [2] was 5.51 ± 0.25 h and the “total protein half-life in vivo” value [3] was 4.72 ± 0.45 h. The “total protein half-life in vivo” value [4] was 5.13 ± 0.37 h, the “total protein half-life in vivo” value [5] was 4.237 ± 0.022 h and the “total protein half-life in vivo” value [6] was 3.01 ± 0.26 h. The “total protein half-life in vivo” value [7] was 5.47 ± 0.41 h, the “total protein half-life in vivo” value [8] was 9.33 ± 0.45 h and the “total protein half-life in vivo” value [9] was 4.2 ± 0.049 h. For the same sequence, the “total protein half-life in vivo” value [10] was 7.37 ± 0.27 h, the “total protein half-life in vivo” value [11] was 4.18 ± 0.28 h and the “total protein half-life in vivo” value [12] was 7.44 ± 0.14 h.
For “MTWEYALIGLVVGIIIGAVAMRFGNRKLRQQQALQYELEKNKAELDEYREELVSHFARSAELLDTMAHDYRQLYQHMAKSSSSLLPELSAEANPFRNRLAESEASNDQAPVQMPRDYSEGASGLLRTGAKRD [P0ADW3]”, the “total protein half-life in vivo” value [1] was 6.13 ± 0.15 h, the “total protein half-life in vivo” value [2] was 5.58 ± 0.45 h and the “total protein half-life in vivo” value [3] was 5.63 ± 0.57 h. The “total protein half-life in vivo” value [4] was 5.76 ± 0.067 h, the “total protein half-life in vivo” value [5] was 5.84 ± 0.37 h and the “total protein half-life in vivo” value [6] was 3.33 ± 0.31 h. For the same sequence, the “total protein half-life in vivo” value [7] was 6.4 ± 0.23 h, the “total protein half-life in vivo” value [8] was 12.4 ± 2.7 h and the “total protein half-life in vivo” value [9] was 5.78 ± 0.092 h. For the same sequence, the “total protein half-life in vivo” value [10] was 11.7 ± 0.66 h, the “total protein half-life in vivo” value [11] was 5.43 ± 0.44 h and the “total protein half-life in vivo” value [12] was 12.5 ± 1.1 h.
With “MTWFIDRRLNGKNKSMVNRQRFLRRYKAQIKQSISEAINKRSVTDVDSGESVSIPTEDISEPMFHQGRGGLRHRVHPGNDHFVQNDRIERPQGGGGGSGSGQGQASQDGEGQDEFVFQISKDEYLDLLFEDLALPNLKQNQQRQLTEYKTHRAGYTANGVPANISVVRSLQNSLARRTAMTAGKRRELHALEENLAIISNSEPAQLLEEERLRKEIAELRAKIERVPFIDTFDLRYKNYEKRPDPSSQAVMFCLMDVSGSMDQSTKDMAKRFYILLYLFLSRTYKNVEVVYIRHHTQAKEVDEHEFFYSQETGGTIVSSALKLMDEVVKERYNPAQWNIYAAQASDGDNWADDSPLCHEILAKKLLPVVRYYSYIEITRRAHQTLWREYEHLQSTFDNFAMQHIRDQDDIYPVFRELFHKQNATAKG” the “total protein half-life in vivo” value [1] was 2.93 ± 0.22 h, the “total protein half-life in vivo” value [2] was 2.2 ± 0.052 h and the “total protein half-life in vivo” value [3] was 1.52 ± 0.018 h. For the same sequence, the “total protein half-life in vivo” value [4] was 1.525 ± 0.004 h, the “total protein half-life in vivo” value [5] was 1.49 ± 0.047 h and the “total protein half-life in vivo” value [6] was 1.37 ± 0.082 h. For the same sequence, the “total protein half-life in vivo” value [7] was 1.6 ± 0.063 h, the “total protein half-life in vivo” value [8] was 1.95 ± 0.46 h and the “total protein half-life in vivo” value [9] was 1.47 ± 0.039 h. The “total protein half-life in vivo” value [10] was 1.64 ± 0.027 h, the “total protein half-life in vivo” value [11] was 1.98 ± 0.3 h and the “total protein half-life in vivo” value [12] was 3.11 ± 0.88 h.
With “MTWLPLNPIPLKDRVSMIFLQYGQIDVIDGAFVLIDKTGIRTHIPVGSVACIMLEPGTRVSHAAVRLAAQVGTLLVWVGEAGVRVYASGQPGGARSDKLLYQAKLALDEDLRLKVVRKMFELRFGEPAPARRSVEQLRGIEGSRVRATYALLAKQYGVTWNGRRYDPKDWEKGDTINQCISAATSCLYGVTEAAILAAGYAPAIGFVHTGKPLSFVYDIADIIKFDTVVPKAFEIARRNPGEPDREVRLACRDIFRSSKTLAKLIPLIEDVLAAGEIQPPAPPEDAQPVAIPLPVSLGDAGHRSS” the “total protein half-life in vivo” value [1] was 4.85 ± 0.84 h, the “total protein half-life in vivo” value [5] was 1.32 ± 0.25 h and the “total protein half-life in vivo” value [6] was 3.48 h. The “total protein half-life in vivo” value [7] was 3.62 ± 1.9 h, the “total protein half-life in vivo” value [8] was 5.4 h and the “total protein half-life in vivo” value [9] was 1.32 h. The “total protein half-life in vivo” value [11] was 2.23 h.
With “MTYAVEFDNVSRLYGDVRAVDGVSIAIKDGEFFSMLGPSGSGKTTCLRLIAGFEQLSGGAISIFGKPASNLPPWERDVNTVFQDYALFPHMSILDNVAYGLMVKGVNKKQRHAMAQEALEKVALGFVHQRKPSQLSGGQRQRVAIARALVNEPRVLLLDEPLGALDLKLREQMQLELKKLQQSLGITFIFVTHDQGEALSMSDRVAVFNNGRIEQVDSPRDLYMRPRTPFVAGFVGTSNVFDGLMAEKLCGMTGSFALRPEHIRLNTPGELQANGTIQAVQYQGAATRFELKLNGGEKLLVSQANMTGEELPATLTPGQQVMVSWSRDVMVPLVEER” the “total protein half-life in vivo” value [1] was 6.01 ± 0.38 h, the “total protein half-life in vivo” value [2] was 6.427 ± 0.038 h and the “total protein half-life in vivo” value [3] was 5.58 ± 0.28 h. For the same sequence, the “total protein half-life in vivo” value [4] was 4.65 ± 1.3 h, the “total protein half-life in vivo” value [5] was 5.64 ± 0.085 h and the “total protein half-life in vivo” value [8] was 10.2 ± 0.023 h. For the same sequence, the “total protein half-life in vivo” value [9] was 4.78 ± 0.27 h, the “total protein half-life in vivo” value [10] was 10.4 ± 0.55 h and the “total protein half-life in vivo” value [11] was 4.68 h. The “total protein half-life in vivo” value [12] was 10.8 ± 1.8 h.
With “MTYQQAGRIAVLKRILGWVIFIPALISTLISLLKFMNTRQENKEGINAVMLDFTHVMIDMMQANTPFLNLFWYNSPTPNFNGGVNVMFWVIFILIFVGLALQDSGARMSRQARFLREGVEDQLILEKAKGEEGLTREQIESRIVVPHHTIFLQFFSLYILPVICIAAGYVFFSLLGFI” the “total protein half-life in vivo” value [1] was 5.41 ± 0.081 h, the “total protein half-life in vivo” value [2] was 5.2 ± 0.35 h and the “total protein half-life in vivo” value [3] was 5.42 ± 0.091 h. The “total protein half-life in vivo” value [4] was 5.94 h, the “total protein half-life in vivo” value [5] was 6.11 ± 1.1 h and the “total protein half-life in vivo” value [6] was 2.86 ± 0.074 h. For the same sequence, the “total protein half-life in vivo” value [8] was 13.5 ± 0.8 h, the “total protein half-life in vivo” value [9] was 5.62 ± 0.27 h and the “total protein half-life in vivo” value [10] was 9.96 ± 2.3 h. The “total protein half-life in vivo” value [11] was 5.46 ± 0.11 h and the “total protein half-life in vivo” value [12] was 12 ± 0.18 h.
For “MVAVRSAHINKAGEFDPEKWIASLGITSQKSCECLAETWAYCLQQTQGHPDASLLLWRGVEMVEILSTLSMDIDTLRAALLFPLADANVVSEDVLRESVGKSVVNLIHGVRDMAAIRQLKATHTDSVSSEQVDNVRRMLLAMVDDFRCVVIKLAERIAHLREVKDAPEDERVLAAKECTNIYAPLANRLGIGQLKWELEDYCFRYLHPTEYKRIAKLLHERRLDREHYIEEFVGHLRAEMKAEGVKAEVYGRPKHIYSIWRKMQKKNLAFDELFDVRAVRIVAERLQDCYAALGIVHTHYRHLPDEFDDYVANPKPNGYQSIHTVVLGPGGKTVEIQIRTKQMHEDAELGVAAHWKYKEGAAAGGARSGHEDRIAWLRKLIAWQEEMADSGEMLDEVRSQVFDDRVYVFTPKGDVVDLPAGSTPLDFAYHIHSDVGHRCIGAKIGGRIVPFTYQLQMGDQIEIITQKQPNPSRDWLNPNLGYVTTSRGRSKIHAWFRKQDRDKNILAGRQILDDELEHLGISLKEAEKHLLPRYNFNDVDELLAAIGGGDIRLNQMVNFLQSQFNKPSAEEQDAAALKQLQQKSYTPQNRSKDNGRVVVEGVGNLMHHIARCCQPIPGDEIVGFITQGRGISVHRADCEQLAELRSHAPERIVDAVWGESYSAGYSLVVRVVANDRSGLLRDITTILANEKVNVLGVASRSDTKQQLATIDMTIEIYNLQVLGRVLGKLNQVPDVIDARRLHGS [P0AG20]”, the “total protein half-life in vivo” value [1] was 5.7 ± 0.41 h, the “total protein half-life in vivo” value [2] was 5.46 ± 0.31 h and the “total protein half-life in vivo” value [3] was 4.65 ± 0.24 h. The “total protein half-life in vivo” value [4] was 4.99 ± 0.054 h, the “total protein half-life in vivo” value [5] was 4.36 ± 0.23 h and the “total protein half-life in vivo” value [6] was 2.68 ± 0.21 h. The “total protein half-life in vivo” value [7] was 4.87 ± 0.11 h, the “total protein half-life in vivo” value [8] was 8.04 ± 0.43 h and the “total protein half-life in vivo” value [9] was 4.74 ± 0.17 h. The “total protein half-life in vivo” value [10] was 7.78 ± 0.22 h, the “total protein half-life in vivo” value [11] was 4.8 ± 0.23 h and the “total protein half-life in vivo” value [12] was 9.13 ± 0.26 h.
